Experiment: soluble on expression in E. coli; label from the status in PepcDB or PDB records

Sequence | soluble on expression in E. coli
MNTNREPRFHDKVQAACYALMLDEHGVPADTGTLLYTKNAAVDRSEASGDLSPAKEFSIGRGFLEFVVRERNHLAALEASDGPPTGYEADAKCDYCFEQDTCMVVSGRLDQESKAGRIGDPVPAEERAYFDELYDAIEAERGAIHDEYRKLWEQSPDERAADDRAVVGLSPAEQTELPDGRWRLTATRPGSAASKIREGDRVLASDGDPVAGRAEMARVERLDADRVEVTTDEPVSLCRLDVYPSELEHHHHHH | soluble
STLPRFDSVDLGNAPVPADAARRFEELAAKAGTGEAWETAEQIPVGTLFNEDVYKDMDWLDTYAGIPPFVHGPYATMYAFRPWTIRQFAGFSTAKESNAFYRRNLAAGQKGLSVAFDLPTHRGYDSDNPRVAGDVGMAGVAIDSIYDMRELFAGIPLDQMSVSMTMNGAVLPILALYVVTAEEQGVKPEQLAGTIQNDILKEFMVRNTYIYPPQPSMRIISEIFAYTSANMPKWNSISISGYHMQEAGATADIEMAYTLADGVDYIRAGESVGLNVDQFAPRLSFFWGIGMNFFMEVAKLRAARMLWAKLVHQFGPKNPKSMSLRTHSQTSGWSLTAQDVYNNVVRTCIEAMAATQGHTQSLHTNSLDEAIALPTDFSARIARNTQLFLQQESGTTRVIDPWSGSAYVEELTWDLARKAWGHIQEVEKVGGMAKAIEKGIPKMRIEEAAARTQARIDSGRQPLIGVNKYRLEHEPPLDVLKVDNSTVLAEQKAKLVKLRAERDPEKVKAALDKITWAAGNPDDKDPDRNLLKLCIDAGRAMATVGEMSDALEKVFGRYTAQIRTISGVYSKEVKNTPEVEEARELVEEFEQAEGRRPRILLAKMGQDGHDRGQKVIATAYADLGFDVDVGPLFQTPEETARQAVEADVHVVGVSSLAGGHLTLVPALRKELDKLGRPDILITVGGVIPEQDFDELRKDGAVEIYTPGTVIPESAISLVKKLRASLDA | soluble
MGSDKIHHHHHHMIQSVRIKNFKNFKNTKIDGFTKLNIITGQNNAGKSNLLEALYYLVGKSMHPCTNVLEIYDNIRKEPLTSESKSLMFYGLDTKEEIQIVTTLDNNQTLDLQIKFIASENQKVIESQIIPTAEQTQMSSQLNFTLKKNNEEIYNDHLNIAKVPNFPPIPNQSGYNRQFKNFDSNQLQKLLPFESAVIIPSDVVYRQAHMIQAVSKICSNNQLEEELNKHLNQFDNNIQAISFNTNNQLKLKVKDIKEKVPLSVFGDGLKKYLHIVSAFMADNAKTIYIDEVENGLHFSRMRLLLKNTIDFINNNKDGNLQVFMTTHSQEFIEILDQVIREKDFAHQTKLFCLKQDDQYVIPRTYYGENLEYYFENEENLFG | not soluble
METMKSKANCAQNPNCNIMIFHPTKEEFNDFDKYIAYMESQGAHRAGLAKIIPPKEWKARETYDNISEILIATPLQQVASGRAGVFTQYHKKKKAMTVGEYRHLANSKKYQTPPHQNFEDLERKYWKNRIYNSPIYGADISGSLFDENTKQWNLGHLGTIQDLLEKECGVVIEGVNTPYLYFGMWKTTFAWHTEDMDLYSINYLHLGEPKTWYVVPPEHGQRLERLARELFPGSSRGCGAFLRHKVALISPTVLKENGIPFNRITQEAGEFMVTFPYGYHAGFNHGFNCAEAINFATPRWIDYGKMASQCSCGEARVTFSMDAFVRILQPERYDLWKRGQDRAVVDHMEPRVPA | soluble
GSNAFGRFIDKIYLNSVGWRGIRQRKTHLQMLIKQAVAHLHAKGLAVRVVDIAAGHGRYVLDALANEPAISEILLRDYSEVNVAQGQEMIAQRGMSGRVRFEQGDAFNPEELSALTPRPTLAIVSGLYELFPENEQVKNSLAGLANAIDPGGILIYTGQPWHPQLELIAGVLTSHKDGKPWVMRVRSQGEMDSLVHDAGFDKCTQRIDVWGIFTVSMAVRRDN | not soluble
SGIIKMAIRFDRRAYPPQITPKMCLLEWCRREKLPQPVYETVQRTIDRMFCSVVTVAEQKYQSTLWDKSKKLAEQTAAIVCLRSQGLPEGRLGEESPSLNKRKREAPDQDPGGPR | soluble
GPGSMLYDEEECIKVIVVGDGNVGKTCMLRRFVRGDFVEQYRKTIGAEFMEKDVFLRSSKTMVKLMLWDTAGQEVFNALTQAYYRGAGAAILTFSTVDRDSLMSIAGWKQRVESVCGCITMVLCQTKFDLSHEAVITHAEAEGLASQLEVPLFRVSAKDDFNVRQLFEFTAQQCVENSAQDEAPVDDMP | not soluble
AHHHHHHGSNSKEFRKIALVGASKNPAKYGNIILKDLLSKGFEVLPVNPNYDEIEGLKCYRSVRELPKDVDVIVFVVPPKVGLQVAKEAVEAGFKKLWFQPGAESEEIRRFLEKAGVEYSFGRCIMVETSNKKIFLEV | soluble
MLIINKLNHAQKQLEKLNFIPQQADKVDFLASSSEFKARILQLINTAKSRIYLTALYFEQDEAGQQILAALYQAKLANPALDIQILVDWHRAQRGRIGEKTTSSNADWYANMKQQYNLPPEQEIAVWGVPINGREIFGVLHLKGFIFDDTILYSGASINNVYLQQFDRYRYDRYHTLENKVLADSLVTFLQQHILTDHAVNRLDNMQRPVTANIRPAIKAFRKQLTKQQYQFAEQPESNGLMLSPIAGLGRKNQLNKTIEALFYKTQNKLTICTPYFNFPRSLITRIKWLLENGKQVEIIAGDKKANDFYTPPDKKFTMAAALPYLYEKNLRAFAKRFDSYIQNKLLTIRLWKDGENTYHLKGLWVDNRYILLTGNNLNPRAWGLDAENGILLDDPKAELAEKAALELTQIRTFTQELSHYSDLETIKDYPLEVQKLLKKFGRVKLDKIIKMLLLEHHHHHH | not soluble
MSFETISVIGLGYIGLPTAAAFASRKKKVIGVDVNAHAVETINRGAIHIVEPDLDKVVKIAVEGGYLQAVTKPQAADAFLIAVPTPFKGDHEPDMIFVESAAKSIAPVLKKGDLVILESTSPVGATEQMAQWLAEARPDLSFPQQAGEAADINIAYCPERVLPGQVMVELIQNDRVIGGMTPKCSARASALYKIFLEGECVVTNSRTAEMCKLTENSFRDVNIAFANELSLICDEQGINVWELIRLANRHPRVNILQPGPGVGGHCIAVDPWFIVSQNPQLARLIHTARLVNDGKPLWVVDRVKAAVADCLAASDKRASEVKIACFGLAFKPDIDDLRESPAVGVARLIAEWHVGETLVVEPNVEQLPKSLMGLVTLKDTATALQQADVLVMLVDHKQFKAIKPEDIKQQWIVDTKGVWR | not soluble
GPVKLRLTVLCAKNLVKKDFFRLPDPFAKVVVDGSGQCHSTDTVKNTLDPKWNQHYDLYIGKSDSVTISVWNHKKIHKKQGAGFLGCVRLLSNAINRLKDTGYQRLDLCKLGPNDNDTVRGQIVVSLQSRD | soluble
MGLELEWMPIEDLKLPSNVIEIIKKRGIKKLNPPQTEAVKKGLLEGNRLLLTSPTGSGKTLIAEMGIISFLLKNGGKAIYVTPLRALTNEKYLTFKDWELIGFKVAMTSGDYDTDDAWLKNYDIIITTYEKLDSLWRHRPEWLNEVNYFVLDELHYLNDPERGPVVESVTIRAKRRNLLALSATISNYKQIAKWLGAEPVATNWRPVPLIEGVIYPERKKKEYNVIFKDNTTKKVHGDDAIIAYTLDSLSKNGQVLVFRNSRKMAESTALKIANYMNFVSLDENALSEILKQLDDIEEGGSDEKELLKSLISKGVAYHHAGLSKALRDLIEEGFRQRKIKVIVATPTLAAGVNLPARTVIIGDIYRFNKKIAGYYDEIPIMEYKQMSGRAGRPGFDQIGESIVVVRDKEDVDRVFKKYVLSDVEPIESKLGSERAFYTFLLGILSAEGNLSEKQLENFAYESLLAKQLVDVYFDRAIRWLLEHSFIKEEGNTFALTNFGKRVADLYINPFTADIIRKGLEGHKASCELAYLHLLAFTPDGPLVSVGRNEEEELIELLEDLDCELLIEEPYEEDEYSLYINALKVALIMKDWMDEVDEDTILSKYNIGSGDLRNMVETMDWLTYSAYHLSRELKLNEHADKLRILNLRVRDGIKEELLELVQISGVGRKRARLLYNNGIKELGDVVMNPDKVKNLLGQKLGEKVVQEAARLLNRFH | soluble
MSDNDTIVAQATPPGRGGVGILRISGFKAREVAETVLGKLPKPRYADYLPFKDADGSVLDQGIALWFPGPNSFTGEDVLELQGHGGPVILDLLLKRILTIPGLRIARPGEFSERAFLNDKLDLAQAEAIADLIDASSEQAARSALNSLQGAFSARVNHLVEALTHLRIYVEAAIDFPDEEIDFLSDGKIEAQLNDVIADLDAVRAEARQGSLLREGMKVVIAGRPNAGKSSLLNALAGREAAIVTDIAGTTRDVLREHIHIDGMPLHIIDTAGLREASDEVERIGIERAWQEIEQADRVLFMVDGTTTDAVDPAEIWPEFIARLPAKLPITVVRNKADITGETLGMSEVNGHALIRLSARTGEGVDVLRNHLKQSMGFDTNMEGGFLARRRHLQALEQAAEHLQQGKAQLLGAWAGELLAEELRLAQQNLSEITGEFTSDDLLGRIFSSFCIGK | soluble
MGSDKIHHHHHHMNFTHKNLQRSYMAERTMVILDGGMGRELQRSGAPFRQPEWSALALSEAPEAVVGVHAAFIDAGAQVITSNSYAVVPFHIGEERFAAEGRQLAHIAGQLARHAADSGAHPVRVAGSLPPLFGSYRPDLFQPERVAEVLTPLLQGLAPHVDLWLAETQSSVAEVRAIHSHLPADGRPFWVSFTLQDEEVDEVPRLRSGEPVAEAIEAAVGLGVAAVLFNCSQPEVIGAAIDVARSVIERHNAEIAIGAYANAFPPQPKEATANDGLDELREDLDPPGYLAWAKDWRARGASMVGGCCGIGPEHIAELKRNLA | not soluble
MVQSLNTKVDLVIDATAFTGLTDYGQIMIGDRGFEFYHAKDPRKFIQIPWEEVDYVLASVMFKGKWIPRYAIQTKKNGTYTFASKEPKRVLRAIREYVDPDHMVQSLSFFDVIKRGILSIGKKKK | not soluble
MKLKTTLFGNVYQFKDVKEVLAKANELRSGDVLAGVAAASSQERVAAKQVLSEMTVADIRNNPVIAYEDDCVTRLIQDDVNETAYNQIKNWSISELREYVLSDETSVDDIAFTRKGLTSEVVAAVAKICSNADLIYGAKKMPVIKKANTTIGIPGTFSARLQPNDTRDDVQSIAAQIYEGLSFGVGDAVIGVNPVTDDVENLSRVLDTIYGVIDKFNIPTQGCVLAHVTTQIEAIRRGAPGGLIFQSICGSEKGLKEFGVELAMLDEARAVGAEFNRIAGENCLYFETGQGSALSAGANFGADQVTMEARNYGLARHYDPFIVNTVVGFIGPEYLYNDRQIIRAGLEDHFMGKLSGISMGCDCCYTNHADADQNLNENLMILLATAGCNYIMGMPLGDDIMLNYQTTAFHDTATVRQLLNLRPSPEFERWLESMGIMANGRLTKRAGDPSLFF | soluble
GMQTLNDIYLAYLDSLNHQAFDELGTFVDDNVEHNGRPFGLSGYRDMLVKDFADIPDLRFEAEILVSDATRLAARLFFDCTPKSIFMDLPVNGRRVQFCEHVFYDFEQAKIRRVWSVLDKVAIERQLG | soluble
AIASSLVYPVSQSYHYLSTSNNRLFSAVPSEEKSNKEVKGKAQETSKENTSPATLQDSFGFQLKTGTPDRMPSSFDQATGSERAELEDPDLYRNPEKYVNSRVMIAPFGTKEKPLLIPSRYDSRIIGCTGREAPNDHGVYYMTVKENHDKVCPLCGQVFRLKKVAGGEEASHHHHE | soluble
MAHHHHHHMPRIEISKDVKLTIMSYNIQMLSIPFSVHLNSWTRRNAIIDYICSLDDIYDIDILVLNEVFTKKCYKLLTSGKIKEKFPYHTNVIGRNYKRHDNYNDSSSSTGQKDGLSFHSSDTNINIESSRGISNYVSEQMEYIRKNKENHKNKLSKISEDISENSNSSYNSNFDTITGKRKFFHFVNGGVIVLSKHKILHKHALIYSSGKFPDVFCSKGAIYLKCDVMNKKVNVVATHLQAGDNKEQQKCRWKQIDELSKWVYEGIPSTFIKKFESLFFVGDFNIRYNADRLFLDKVLSDNYLNSYVTKKSLDTTYDSFLNDYCRYIERDYNYKHKYTLDYILVANNSNVEIIVPQTSIQNYYKSLYFIKFFLGIIPYKTTYIHHPSDHFPIYATFLILS | soluble

From the DeepSol protein solubility set
